The values that follow come from patent US20090214427A1 (LICENTIA, published 2009).

No end group written: not given here.

The target of this assay is recombinant wild-type (wt) human kallikrein 2 (human, UniProt P20151 25-261). Put plainly: cell-based or functional assay.
For GPARRAFPVTAG-OH [GPARRAFPVTAG (SEQ ID NO:19)], the inhibition (commonly the drop in the measured response relative to a control, in per cent) was 0%.
In the case of ARFKVWWA-NH2 [ARFKVWWA(CONH2) (SEQ ID NO:82)] it was 86%; in that of GAARRAFPAPSG [GAARRAFPAPSG (SEQ ID NO:10)], 0%.
For the molecule GAARRPFPAPAG [GAARRPFPAPAG (SEQ ID NO:14)], the inhibition was determined as 78%.
In the case of GAARRPFPAASG [GAARRPFPAASG (SEQ ID NO:13)] it was 69%; in that of ARFKVWWG [ARFKVWWG (SEQ ID NO:75)], 94%.
For the molecule GAARRPAPAPSG [GAARRPAPAPSG (SEQ ID NO:11)], the inhibition was determined as 75%.
Regarding GAARRPFPAPSG [GAARRPFPAPSG (SEQ ID NO:7)], the inhibition was determined as 77%.
Regarding GPAARPFPVTAG-OH [GPAARPFPVTAG (SEQ ID NO:17)], the inhibition stood at 0%.
As for ARFKVWWGG [ARFKVWWGG (SEQ ID NO:78)], the inhibition stood at 93%.
In the case of SRFKVG-OH [SRFKVG (SEQ ID NO:71)] it was 7%; in that of ARFKVWWA [ARFKVWWA (SEQ ID NO:79)], 95%.
In the case of Ac-SRFKVWWG [Ac-SRFKVWWG (SEQ ID NO:74)] it was 86%.
As to SRFKVWWAG-OH [SRFKVWWAG (SEQ ID NO:68)], the inhibition came to 80%.
As to GAAARPFPAPSG [GAAARPFPAPSG (SEQ ID NO:8)], the inhibition stood at 0%.
In the case of GAARAPFPAPSG [GAARAPFPAPSG (SEQ ID NO:9)] it was 0%; in that of Ac-ARFKVWWAA [Ac-ARFKVWWAA (SEQ ID NO:81)], 93%; in that of GAARRPFAAPSG [GAARRPFAAPSG (SEQ ID NO:12)], 24%.
Take SRFKG-OH [SRFKG (SEQ ID NO:72)]: the inhibition was 0%.
SRFKVWG-OH [SRFKVWG (SEQ ID NO:70)]: the inhibition was 8%.
Take Ac-ARFKVWWGG [Ac-ARFKVWWGG (SEQ ID NO:77)]: the inhibition worked out at 92%.
For GAARRPFPVTAG [GAARRPFPVTAG (SEQ ID NO:16)], the inhibition turned out to be 61%.
On to Ac-ARFKVWWA [Ac-ARFKVWWA (SEQ ID NO:80)], for which the inhibition was found to be 94%.
For FKVWWAAG [FKVWWAAG (SEQ ID NO:66)], the inhibition was determined as 0%.
Regarding Ac-ARFKVWWG [Ac-ARFKVWWG (SEQ ID NO:76)], the inhibition worked out at 93%.
In the case of WWAAG-OH [WWAAG (SEQ ID NO:67)], the inhibition stood at 0%.
As for GPARAPFPVTAG-OH [GPARAPFPVTAG (SEQ ID NO:18)], the inhibition was 0%.
For the molecule RFKVWWAAG-OH [RFKVWWAAG (SEQ ID NO:65)], the inhibition worked out at 22%.
